{"source": "patent US6355245", "key": {"[1]": {"target": "human complement component C5 (purified) (human) (UniProt P01031)", "sequence (P01031 19-673 T389I limits assumed, chain 1 of 2)": "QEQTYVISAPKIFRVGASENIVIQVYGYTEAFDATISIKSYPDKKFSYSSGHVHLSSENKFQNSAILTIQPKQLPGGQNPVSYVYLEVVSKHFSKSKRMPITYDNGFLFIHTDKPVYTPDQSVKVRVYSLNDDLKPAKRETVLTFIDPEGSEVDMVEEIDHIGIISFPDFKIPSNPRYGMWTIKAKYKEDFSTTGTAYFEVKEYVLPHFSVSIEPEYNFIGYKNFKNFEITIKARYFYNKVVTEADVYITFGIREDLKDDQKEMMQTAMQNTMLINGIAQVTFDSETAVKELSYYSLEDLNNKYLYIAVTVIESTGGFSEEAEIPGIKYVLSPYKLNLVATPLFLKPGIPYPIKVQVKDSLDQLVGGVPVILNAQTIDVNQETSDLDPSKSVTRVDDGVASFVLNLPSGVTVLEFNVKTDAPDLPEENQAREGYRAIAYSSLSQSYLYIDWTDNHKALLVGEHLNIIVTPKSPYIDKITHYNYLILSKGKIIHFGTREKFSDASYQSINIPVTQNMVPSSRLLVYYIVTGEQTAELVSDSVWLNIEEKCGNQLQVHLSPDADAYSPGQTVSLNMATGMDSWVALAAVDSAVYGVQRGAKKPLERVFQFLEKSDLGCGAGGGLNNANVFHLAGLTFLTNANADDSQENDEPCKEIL", "sequence (P01031 678-1676 V802I limits assumed, chain 2 of 2)": "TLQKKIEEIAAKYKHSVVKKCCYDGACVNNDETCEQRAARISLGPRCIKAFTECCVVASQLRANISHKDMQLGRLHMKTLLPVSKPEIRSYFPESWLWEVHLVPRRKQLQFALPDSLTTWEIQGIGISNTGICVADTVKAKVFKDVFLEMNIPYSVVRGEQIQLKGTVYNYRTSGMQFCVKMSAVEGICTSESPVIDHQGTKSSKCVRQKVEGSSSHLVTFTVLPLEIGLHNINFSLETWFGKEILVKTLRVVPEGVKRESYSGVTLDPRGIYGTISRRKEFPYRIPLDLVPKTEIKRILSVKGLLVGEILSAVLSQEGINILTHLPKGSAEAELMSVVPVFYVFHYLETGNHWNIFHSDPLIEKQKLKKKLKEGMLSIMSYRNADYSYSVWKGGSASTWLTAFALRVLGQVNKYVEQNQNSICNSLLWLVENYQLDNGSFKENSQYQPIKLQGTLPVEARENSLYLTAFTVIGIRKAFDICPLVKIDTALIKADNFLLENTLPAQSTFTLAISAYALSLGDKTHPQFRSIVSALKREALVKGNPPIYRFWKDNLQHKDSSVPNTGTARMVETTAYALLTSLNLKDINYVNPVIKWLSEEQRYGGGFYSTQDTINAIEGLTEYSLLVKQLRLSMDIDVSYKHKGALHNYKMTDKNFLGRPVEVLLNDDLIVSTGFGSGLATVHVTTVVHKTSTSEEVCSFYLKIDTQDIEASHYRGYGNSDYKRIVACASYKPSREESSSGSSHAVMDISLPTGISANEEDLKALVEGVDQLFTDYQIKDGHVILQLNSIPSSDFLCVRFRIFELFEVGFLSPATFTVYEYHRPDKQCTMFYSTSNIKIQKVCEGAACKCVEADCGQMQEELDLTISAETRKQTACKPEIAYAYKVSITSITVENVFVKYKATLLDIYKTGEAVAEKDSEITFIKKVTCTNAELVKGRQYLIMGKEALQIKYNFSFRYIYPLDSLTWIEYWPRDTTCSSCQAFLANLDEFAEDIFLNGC", "test": "cell-based or functional assay"}, "[2]": {"target": "human complement component C5 (purified) (human) (UniProt P01031)", "test": "plate-bound C3, C5 20 µg/ml with 5G1.1 Fab 20 µg/ml, bound C5 detected with N19/8; competitor C3"}, "[3]": {"target": "human complement component C5 (purified) (human) (UniProt P01031)", "test": "plate-bound C4, C5 20 µg/ml with 5G1.1 Fab 20 µg/ml, bound C5 detected with N19/8; competitor C4"}, "[4]": {"target": "human complement component C5 (purified) (human) (UniProt P01031)", "test": "solution equilibrium with C5, free antibody measured by ELISA (Friguet method), Scatchard analysis"}}}
{"substance": "5G1.1 Fab (derived from 5G1.1 by conventional papain digestion)", "values": [{"measurement": "concentration that completely blocks C5a generation", "setting": "[1]", "result": "0.06 to 0.08", "unit": "µM"}, {"measurement": "concentration that completely blocks C5b-9-mediated hemolysis in 20% human serum", "setting": "[1]", "result": "0.06 to 0.08", "unit": "µM"}, {"measurement": "percent inhibition of C5 binding to C3", "setting": "[2]", "result": "60 to 90", "unit": "%"}, {"measurement": "percent inhibition of C5 binding to C4", "setting": "[3]", "result": "60 to 90", "unit": "%"}]}
{"substance": "5G1.1 monoclonal antibody (native murine anti-human C5 mAb, produced by hybridoma 5G1.1, ATCC HB-11625)", "values": [{"measurement": "concentration that blocks serum hemolytic activity, 20% v/v human serum", "setting": "[1]", "result": 6.25, "unit": "µg/mL"}, {"measurement": "concentration that completely blocks C5a generation", "setting": "[1]", "result": "0.06 to 0.08", "unit": "µM"}, {"measurement": "concentration that completely blocks C5b-9-mediated hemolysis in 20% human serum", "setting": "[1]", "result": "0.06 to 0.08", "unit": "µM"}, {"measurement": "molar ratio at which serum hemolytic activity is blocked, 20% v/v human serum (molar ratio 5G1.1/C5)", "setting": "[1]", "result": 0.5}, {"measurement": "serum hemolytic activity (chicken erythrocyte hemolysis assay, human serum) (molar ratio antibody/C5)", "setting": "[1]", "result": 0.5}, {"measurement": "Kd", "setting": "[4]", "result": 0.03, "unit": "nM"}]}
{"substance": "chimeric N19/8 Fab (N19-8 VL/human kappa constant region and N19-8 VH/human IgG1 Fd)", "values": [{"measurement": "blocking of complement hemolytic activity and of C5a generation", "setting": "[1]", "result": 50, "unit": "%"}]}
{"substance": "m5G1.1 scFv (non-humanized murine 5G1.1 scFv, 5G1.1M1scFv)", "values": [{"measurement": "concentration that completely blocks C5a generation", "setting": "[1]", "result": 0.15, "unit": "µM"}, {"measurement": "concentration that completely blocks C5b-9-mediated hemolysis in 20% human serum", "setting": "[1]", "result": 0.15, "unit": "µM"}]}
